Test results taken from publication PMC7793103.

Test system: HIV-1 reverse transcriptase (HXB2-RT) (HIV-1 (HXB2))
Assay: MST
Settings: MST: 50 nM RNA complex titrated with RT; binding buffer, pH and temperature not stated; annealing buffer 10 mM Tris-HCl pH 7.5, 10 mM NaCl, 1 mM MgCl2, 140 mM …

Q: How did the Kd turn out when MAL 5'UTR:tRNALys3 was run?
A: 1.36 µM
